# System: CD8+ T cells
# Assay: In vitro immunogenicity: T-cell priming with aAPCs loaded with peptide/MHC and anti-CD28, multimer readout
# Type: cell-based, human
# Conditions: HLA A*24
row,Substance,Wells positive [%]
1,138 (KYLSIPTVF; listed as Homo sapiens) [compound 138],“+” (<20% = +)

# Same assay, conditions: HLA B*07
row,Substance,Wells positive [%]
1,144 (IPEPSAQQL; listed as Homo sapiens) [compound 144],“+” (<20% = +)
2,146 (SPGDKRLAA; listed as Homo sapiens) [compound 146],“++” (20%-49% = ++)
3,148 (VPDGVSKVL; listed as Homo sapiens) [compound 148],“+++” (50%-69% = +++)
4,155 (FPYPYAERL; listed as Homo sapiens) [compound 155],“+++” (50%-69% = +++)
5,156 (HPQVVILSL; listed as Homo sapiens) [compound 156],“++” (20%-49% = ++)
6,164 (ISTPSEVSTPL; listed as Homo sapiens) [compound 164],“+” (<20% = +)
7,170 (SPMWHVQQL; listed as Homo sapiens) [compound 170],“++++” (>= 70% = ++++)
8,172 (KPAHYPLIAL; listed as Homo sapiens) [compound 172],“+++” (50%-69% = +++)
9,255 (LPDGSRVEL; listed as Homo sapiens) [compound 255],“++++” (>= 70% = ++++)

# Biological target: HLA-A*02:01 (Homo sapiens, UniProt P04439, D140Y/D185E/D98H/E176V/E277Q/G131W/G231S/I119V/I121R/I166T/I218V/L300P/L318F/N151K/N90K/P208A/P217A/Q86G/Q94H/R138H/R169H/T345S)
# Assay: MHC binding assay (UV-ligand exchange, β2m ELISA)
# Conditions: peptide exchange yield, binding to HLA-A*02:01
row,Peptide exchange,Substance
1,“++++” (>75% = ++++),39 (YLLPSVVLL; listed as Homo sapiens) [compound 39]
2,“+++” (>50 = +++),40 (KIDDIWNLEV; listed as Homo sapiens) [compound 40]
3,“+++” (>50 = +++),41 (SLQDTKITL; listed as Homo sapiens) [compound 41]
4,“++” (>20% = ++),44 (SQTGFVVLV; listed as Homo sapiens) [compound 44]
5,“+++” (>50 = +++),45 (KLLDEVTYL; listed as Homo sapiens) [compound 45]
6,“++++” (>75% = ++++),46 (VLITGLPLI; listed as Homo sapiens) [compound 46]
7,“+++” (>50 = +++),47 (YQDSWFQQL; listed as Homo sapiens) [compound 47]
8,“+++” (>50 = +++),51 (ALAAELNQL; listed as Homo sapiens) [compound 51]

# Biological target: HLA-A*24:02 (Homo sapiens, UniProt P04439, D101N/D140Y/D185E/E176V/E190D/F33S/G103R/G107R/I119L/I121M/I306V/K335N/L105A/L180Q/L300P/N151K/N90K/Q86E/Q94H/R106L/R138H/R89G/T104I/T345S/V100E/W191G/Y123F)
# Assay: MHC binding assay (UV-ligand exchange, β2m ELISA)
# Conditions: not given
row,bind to HLA-A*24,Substance
1,binds to HLA-A*24,DYIPYVFKL (listed as Homo sapiens) [SEQ ID NO: 268]

# Same assay, conditions: peptide exchange yield, binding to HLA-A*24:02
row,Peptide exchange,Substance
1,“+++” (>50 = +++),113 (VWAKILSAF; listed as Homo sapiens) [compound 113]
2,“+++” (>50 = +++),114 (KFLDSNIKF; listed as Homo sapiens) [compound 114]
3,“++” (>20% = ++),115 (YFEEAANFL; listed as Homo sapiens) [compound 115]
4,“+” (>10% = +),116 (LVLDYSKDYNHW; listed as Homo sapiens) [compound 116]
5,“++++” (>75% = ++++),117 (NFLPPIIARF; listed as Homo sapiens) [compound 117]
6,“+++” (>50 = +++),118 (TYISKTIAL; listed as Homo sapiens) [compound 118]
7,“+++” (>50 = +++),120 (MYAKEFDLL; listed as Homo sapiens) [compound 120]
8,“+++” (>50 = +++),121 (SYIEKVRFL; listed as Homo sapiens) [compound 121]
9,“++” (>20% = ++),122 (KLYGMPTDFGF; listed as Homo sapiens) [compound 122]
10,“+” (>10% = +),123 (RQYLAINQI; listed as Homo sapiens) [compound 123]
11,“++++” (>75% = ++++),125 (IYGPKYIHPSF; listed as Homo sapiens) [compound 125]
12,“+++” (>50 = +++),126 (TFQDKTLNF; listed as Homo sapiens) [compound 126]
13,“++++” (>75% = ++++),127 (IFINLSPEF; listed as Homo sapiens) [compound 127]
14,“+++” (>50 = +++),128 (SYTKVEARL; listed as Homo sapiens) [compound 128]
15,“++” (>20% = ++),129 (VFLNQIYTQL; listed as Homo sapiens) [compound 129]
16,“+++” (>50 = +++),130 (VYGDGHYLTF; listed as Homo sapiens) [compound 130]
17,“+” (>10% = +),133 (SFDSNLLSF; listed as Homo sapiens) [compound 133]
18,“++” (>20% = ++),134 (TYLTGRQF; listed as Homo sapiens) [compound 134]
19,“+++” (>50 = +++),135 (VIAPIISNF; listed as Homo sapiens) [compound 135]
20,“+++” (>50 = +++),136 (EYNNIQHLF; listed as Homo sapiens) [compound 136]
21,“++++” (>75% = ++++),137 (KYLSLSNSF; listed as Homo sapiens) [compound 137]
22,“++++” (>75% = ++++),138 (KYLSIPTVF; listed as Homo sapiens) [compound 138]
23,“++++” (>75% = ++++),139 (PYASLASELF; listed as Homo sapiens) [compound 139]
24,“++++” (>75% = ++++),140 (KYLSIPAVF; listed as Homo sapiens) [compound 140]
25,“++++” (>75% = ++++),141 (KYLSIPAVFF; listed as Homo sapiens) [compound 141]

# Biological target: HLA-B*07:02 (Homo sapiens, UniProt P01889)
# Assay: MHC binding assay (UV-ligand exchange, β2m ELISA)
# Conditions: peptide exchange yield, binding to HLA-B*07:02
row,Peptide exchange,Substance
1,“++” (>20% = ++),143 (FELPTGAGLQL; listed as Homo sapiens) [compound 143]
2,“++” (>20% = ++),144 (IPEPSAQQL; listed as Homo sapiens) [compound 144]
3,“+++” (>50 = +++),145 (RVPSYTLIL; listed as Homo sapiens) [compound 145]
4,“+++” (>50 = +++),146 (SPGDKRLAA; listed as Homo sapiens) [compound 146]
5,“+++” (>50 = +++),147 (SPIKVPLLL; listed as Homo sapiens) [compound 147]
6,“++” (>20% = ++),148 (VPDGVSKVL; listed as Homo sapiens) [compound 148]
7,“++” (>20% = ++),149 (YPLTGDTRL; listed as Homo sapiens) [compound 149]
8,“+++” (>50 = +++),150 (KPSSKALGTSL; listed as Homo sapiens) [compound 150]
9,“++” (>20% = ++),151 (VVHPRTLLL; listed as Homo sapiens) [compound 151]
10,“+++” (>50 = +++),152 (IPSRLLAIL; listed as Homo sapiens) [compound 152]
11,“+++” (>50 = +++),153 (APAAVPSAPA; listed as Homo sapiens) [compound 153]
12,“++” (>20% = ++),154 (GPGTRLSL; listed as Homo sapiens) [compound 154]
13,“++” (>20% = ++),155 (FPYPYAERL; listed as Homo sapiens) [compound 155]
14,“+++” (>50 = +++),156 (HPQVVILSL; listed as Homo sapiens) [compound 156]
15,“++” (>20% = ++),157 (SPSPGKDPTL; listed as Homo sapiens) [compound 157]
16,“++” (>20% = ++),158 (VPERGEPEL; listed as Homo sapiens) [compound 158]
17,“++” (>20% = ++),159 (FPAHPSLLL; listed as Homo sapiens) [compound 159]
18,“+++” (>50 = +++),160 (RPAPADSAL; listed as Homo sapiens) [compound 160]
19,“++” (>20% = ++),161 (NPYEGRVEV; listed as Homo sapiens) [compound 161]

row,Peptide exchange,Substance
1,“++” (>20% = ++),162 (MPMISIPRV; listed as Homo sapiens) [compound 162]
2,“++” (>20% = ++),163 (RPASSLRP; listed as Homo sapiens) [compound 163]
3,“++” (>20% = ++),164 (ISTPSEVSTPL; listed as Homo sapiens) [compound 164]
4,“+++” (>50 = +++),165 (TPIAKVSEL; listed as Homo sapiens) [compound 165]
5,“++” (>20% = ++),166 (HDPDVGSNSL; listed as Homo sapiens) [compound 166]
6,“++” (>20% = ++),167 (YPSEVEHMF; listed as Homo sapiens) [compound 167]
7,“++” (>20% = ++),168 (IPTDKLLVI; listed as Homo sapiens) [compound 168]
8,“++” (>20% = ++),169 (FPTEVTPHAF; listed as Homo sapiens) [compound 169]
9,“+++” (>50 = +++),170 (SPMWHVQQL; listed as Homo sapiens) [compound 170]
10,“+++” (>50 = +++),171 (APKLFAVAF; listed as Homo sapiens) [compound 171]
11,“+++” (>50 = +++),172 (KPAHYPLIAL; listed as Homo sapiens) [compound 172]
12,“++” (>20% = ++),173 (MVPSAGQLALF; listed as Homo sapiens) [compound 173]
13,“+++” (>50 = +++),174 (VPSLQRLML; listed as Homo sapiens) [compound 174]
14,“++” (>20% = ++),175 (HPIETLVDIF; listed as Homo sapiens) [compound 175]
15,“++” (>20% = ++),255 (LPDGSRVEL; listed as Homo sapiens) [compound 255]
16,“+++” (>50 = +++),256 (LPALPQQLI; listed as Homo sapiens) [compound 256]
17,“++” (>20% = ++),257 (SPLRGGSSL; listed as Homo sapiens) [compound 257]
18,“++” (>20% = ++),258 (APSGTRVVQVL; listed as Homo sapiens) [compound 258]
19,“++” (>20% = ++),259 (RPAVGHSGL; listed as Homo sapiens) [compound 259]
